Reference: the supplement of paper PMC10724198
± gives the standard deviation of the averaged measurements.

How the values were obtained:
Saccharomyces cerevisiae [1] = assay: protein stability index of tFT-peptide fusion (C-terminal peptide) (PSI (0-1 scale)); higher = more stable (slower turnover)
Procedure: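 MPS profiling in S. cerevisiae of the tFT-X12 degron library: putative degron peptides plus stable controls, 12 aa, fused to the C-terminus of a sfGFP-mCherry timer. Cells are FACS-sorted into 8 mCherry/sfGFP bins and deep-sequenced. PSI runs from 0 (unstable) to 1 (stable). Backgrounds are wild type, das1Δ and doa10Δ at 30 °C, and wild type, das1Δ, cdc34-1 and cdc53-1 at 37 °C; 2-3 technical replicates each.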

Saccharomyces cerevisiae [2] = assay: as above; details: genetic background: wild type; temperature: 30 C
[3] = genetic background: cdc34-1, temperature: 37 C
[4] = genetic background: cdc53-1, temperature: 37 C
[5] = genetic background: das1 deletion, temperature: 30 C
[6] = genetic background: das1 deletion, temperature: 37 C
[7] = genetic background: doa10 deletion, temperature: 30 C
[8] = genetic background: wild type, temperature: 30 C
[9] = genetic background: wild type, temperature: 37 C
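Further: PSI is a weighted mean of sequencing reads over stability bins, variants kept only with over 10 reads, mCherry proximal and sfGFP distal, peptide attached via GGGS linker.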

Row | Sequence | protein stability index (Saccharomyces cerevisiae [1]; [3]) | protein stability index (Saccharomyces cerevisiae [1]; [4]) | protein stability index (Saccharomyces cerevisiae [1]; [5]) | protein stability index (Saccharomyces cerevisiae [1]; [6]) | protein stability index (Saccharomyces cerevisiae [1]; [7]) | protein stability index (Saccharomyces cerevisiae [1]; [8]) | protein stability index (Saccharomyces cerevisiae [1]; [9]) | protein stability index (Saccharomyces cerevisiae [2])
1 | FCIFAMQICTSA | 0.126 ± 0.013 | 0.173 ± 0.0037 | 0.112 ± 0.033 | 0.221 ± 0.0074 | 0.084 ± 0.015 | 0.108 ± 0.01 | 0.205 ± 0.015 | 0.18 ± 0.017
2 | FCSPFFFFLFRL | 0.283 ± 0.072 | 0.241 ± 0.032 | 0.357 ± 0.028 | 0.4269 ± 0.003 | 0.469 ± 0.0056 | 0.315 ± 0.031 | 0.361 ± 0.03 | 0.4182 ± 0.00048
3 | FFFLPLFLVLSL | 0.239 ± 0.01 | 0.158 ± 0.034 | 0.29 ± 0.025 | 0.378 ± 0.0094 | 0.486 ± 0.03 | 0.29 ± 0.03 | 0.329 ± 0.0071 | 0.363 ± 0.0047
4 | FFGFYLKFVWCG | 0.431 ± 0.062 | 0.4683 ± 0.0021 | 0.391 ± 0.024 | 0.516 ± 0.0079 | 0.146 ± 0.015 | 0.152 ± 0.019 | 0.258 ± 0.025 | 0.21 ± 0.019
5 | FFPSFGLFLCPV | 0.431 ± 0.01 | 0.471 ± 0.0067 | 0.366 ± 0.036 | 0.5001 ± 0.0015 | 0.381 ± 0.013 | 0.357 ± 0.031 | 0.4685 ± 0.0018 | 0.409 ± 0.027
6 | FFSRIIAILVLM | 0.37 ± 0.071 | 0.453 ± 0.014 | 0.337 ± 0.024 | 0.515 ± 0.016 | 0.135 ± 0.011 | 0.144 ± 0.0086 | 0.192 ± 0.035 | 0.23 ± 0.031
7 | FFVEKRVFFGII | 0.604 ± 0.017 | 0.733 ± 0.015 | 0.593 ± 0.026 | 0.738 ± 0.029 | 0.197 ± 0.013 | 0.242 ± 0.015 | 0.408 ± 0.018 | 0.369 ± 0.009
8 | FFVMVFTVEVFV | 0.0407 ± 0.015 | 0.0863 ± 0.019 | 0.0929 ± 0.015 | 0.167 ± 0.01 | 0.0639 ± 0.011 | 0.0875 ± 0.015 | 0.132 ± 0.0075 | 0.194 ± 0.02
9 | FFVWLGWGMFYG | 0.547 ± 0.034 | 0.575 ± 0.015 | 0.425 ± 0.025 | 0.561 ± 0.0085 | 0.408 ± 0.0042 | 0.437 ± 0.013 | 0.6044 ± 0.0019 | 0.528 ± 0.054
10 | FGALVVCFLTRC | 0.426 ± 0.039 | 0.511 ± 0.056 | 0.342 ± 0.027 | 0.519 ± 0.007 | 0.289 ± 0.02 | 0.302 ± 0.04 | 0.481 ± 0.027 | 0.374 ± 0.026
11 | FGGFYGRRVLII | 0.62024 ± 0.00039 | 0.682 ± 0.0097 | 0.544 ± 0.023 | 0.6748 ± 0.0054 | 0.182 ± 0.0081 | 0.209 ± 0.0024 | 0.437 ± 0.0092 | 0.327 ± 0.04
12 | FGGYLRAGVFLT | 0.643 ± 0.032 | 0.6969 ± 0.0015 | 0.645 ± 0.027 | 0.721 ± 0.0034 | 0.388 ± 0.039 | 0.387 ± 0.043 | 0.586 ± 0.016 | 0.473 ± 0.11
13 | FGPVLLVSFLFS | 0.273 ± 0.024 | 0.386 ± 0.033 | 0.242 ± 0.031 | 0.422 ± 0.027 | 0.19 ± 0.016 | 0.235 ± 0.054 | 0.4008 ± 0.0017 | 0.35 ± 0.014
14 | FGVRRSFVVFVV | 0.3827 ± 0.00079 | 0.456 ± 0.011 | 0.337 ± 0.033 | 0.556 ± 0.0058 | 0.0834 ± 0.011 | 0.0934 ± 0.015 | 0.107 ± 0.014 | 0.191 ± 0.023
15 | FHLFIRRSAVIF | 0.493 ± 0.023 | 0.576 ± 0.0062 | 0.455 ± 0.017 | 0.555 ± 0.023 | 0.3488 ± 0.0019 | 0.351 ± 0.033 | 0.458 ± 0.0063 | 0.439 ± 0.025
16 | FILFSEMFASSV | 0.132 ± 0.021 | 0.175 ± 0.0083 | 0.265 ± 0.026 | 0.149 ± 0.02 | 0.28 ± 0.015 | 0.255 ± 0.028 | 0.137 ± 0.021 | 0.26 ± 0.0085
17 | FLCIFFFFLISF | 0.25 ± 0.012 | 0.194 ± 0.0028 | 0.261 ± 0.027 | 0.32 ± 0.004 | 0.346 ± 0.023 | 0.235 ± 0.035 | 0.297 ± 0.02 | 0.27 ± 0.011
18 | FLCLLSLFFLDF | 0.532 ± 0.044 | 0.572 ± 0.024 | 0.461 ± 0.03 | 0.626 ± 0.036 | 0.462 ± 0.034 | 0.437 ± 0.011 | 0.575 ± 0.015 | 0.478 ± 0.052
19 | FLFCACIRVFSY | 0.0501 ± 0.0013 | 0.17 ± 0.019 | 0.144 ± 0.025 | 0.228 ± 0.0087 | 0.125 ± 0.0033 | 0.133 ± 0.014 | 0.195 ± 0.02 | 0.193 ± 0.0046
20 | FLFSSLFCFLFL | 0.461 ± 0.035 | 0.428 ± 0.0099 | 0.474 ± 0.021 | 0.565 ± 0.029 | 0.571 ± 0.018 | 0.46 ± 0.018 | 0.527 ± 0.0061 | 0.433 ± 0.01

Row | Sequence | protein stability index (Saccharomyces cerevisiae [1]; [3]) | protein stability index (Saccharomyces cerevisiae [1]; [4]) | protein stability index (Saccharomyces cerevisiae [1]; [5]) | protein stability index (Saccharomyces cerevisiae [1]; [6]) | protein stability index (Saccharomyces cerevisiae [1]; [7]) | protein stability index (Saccharomyces cerevisiae [1]; [8]) | protein stability index (Saccharomyces cerevisiae [1]; [9]) | protein stability index (Saccharomyces cerevisiae [2])
21 | FLLLVFGLLIDS | 0.183 ± 0.004 | – | 0.246 ± 0.067 | 0.413 ± 0.022 | 0.188 ± 0.017 | 0.222 ± 0.03 | 0.379 ± 0.11 | 0.338 ± 0.016
22 | FLLYRFSLVGCF | 0.0567 ± 0.0082 | 0.108 ± 0.02 | 0.123 ± 0.031 | 0.194 ± 0.011 | 0.0828 ± 0.021 | 0.108 ± 0.032 | 0.189 ± 0.011 | 0.172 ± 0.026
23 | FLLYVITYRSET | 0.151 ± 0.0098 | 0.304 ± 0.046 | 0.21 ± 0.03 | 0.442 ± 0.047 | 0.161 ± 0.0042 | 0.225 ± 0.025 | 0.378 ± 0.038 | 0.335 ± 0.046
24 | FLPLLFFFFFRF | 0.377 ± 0.0075 | 0.292 ± 0.0066 | 0.391 ± 0.037 | 0.4846 ± 0.0032 | 0.569 ± 0.012 | 0.403 ± 0.022 | 0.479 ± 0.023 | 0.485 ± 0.008
25 | FLPSLSLPLLLF | 0.555 ± 0.0068 | 0.549 ± 0.02 | 0.425 ± 0.035 | 0.573 ± 0.015 | 0.376 ± 0.036 | 0.346 ± 0.017 | 0.479 ± 0.018 | 0.4318 ± 0.0012
26 | FLSLVIVLRWFL | 0.278 ± 0.048 | 0.303 ± 0.045 | 0.255 ± 0.022 | 0.381 ± 0.01 | 0.298 ± 0.021 | 0.242 ± 0.024 | 0.346 ± 0.02 | 0.347 ± 0.042
27 | FLWAVSLCRSLV | 0.607 ± 0.029 | 0.655 ± 0.022 | 0.548 ± 0.035 | 0.662 ± 0.015 | 0.178 ± 0.017 | 0.218 ± 0.026 | 0.385 ± 0.014 | 0.312 ± 0.029
28 | FMRKLVVLVVLG | 0.257 ± 0.029 | 0.307 ± 0.013 | 0.222 ± 0.031 | 0.4342 ± 0.0023 | 0.1923 ± 0.0019 | 0.206 ± 0.028 | 0.417 ± 0.046 | 0.347 ± 0.089
29 | FMVYRIHSSAVM | 0.127 ± 0.017 | 0.172 ± 0.014 | 0.251 ± 0.06 | 0.149 ± 0.006 | 0.265 ± 0.028 | 0.257 ± 0.038 | 0.14 ± 0.014 | 0.158 ± 0.0045
30 | FPGPPSPPPSYF | 0.699 ± 0.048 | 0.776 ± 0.001 | 0.639 ± 0.01 | 0.766 ± 0.0078 | 0.6435 ± 0.0011 | 0.6466 ± 0.0022 | 0.7451 ± 0.0065 | 0.706 ± 0.011
31 | FPVWTALLTVRA | 0.0896 ± 0.022 | 0.128 ± 0.015 | 0.181 ± 0.035 | 0.259 ± 0.0096 | 0.14 ± 0.024 | 0.189 ± 0.014 | 0.22 ± 0.029 | 0.262 ± 0.016
32 | FRCRFLLPFYSV | 0.673 ± 0.013 | 0.724 ± 0.0096 | 0.632 ± 0.0089 | 0.733 ± 0.01 | 0.403 ± 0.013 | 0.438 ± 0.014 | 0.603 ± 0.0033 | 0.482 ± 0.019
33 | FRLCQRPVFLLS | 0.586 ± 0.054 | 0.669 ± 0.014 | 0.542 ± 0.018 | 0.676 ± 0.0091 | 0.182 ± 0.0059 | 0.22 ± 0.017 | 0.408 ± 0.02 | 0.35 ± 0.0061
34 | FSCSRNVLVTVV | 0.192 ± 0.029 | 0.197 ± 0.019 | 0.229 ± 0.029 | 0.344 ± 0.0087 | 0.178 ± 0.015 | 0.209 ± 0.013 | 0.256 ± 0.0056 | 0.32 ± 0.049
35 | FSFPIIFFGMFL | 0.445 ± 0.021 | 0.463 ± 0.0054 | 0.394 ± 0.02 | 0.542 ± 0.006 | 0.426 ± 0.019 | 0.324 ± 0.033 | 0.51 ± 0.021 | 0.415 ± 0.0083
36 | FSFSFWALLWFP | 0.495 ± 0.029 | 0.54 ± 0.017 | 0.438 ± 0.022 | 0.531 ± 0.0093 | 0.48 ± 0.031 | 0.429 ± 0.02 | 0.537 ± 0.02 | 0.466 ± 0.0093
37 | FSFVVRMFFRIL | 0.218 ± 0.009 | 0.266 ± 0.0039 | 0.39 ± 0.038 | 0.408 ± 0.022 | 0.0869 ± 0.019 | 0.0811 ± 0.015 | 0.0988 ± 0.0082 | 0.154 ± 0.014
38 | FSLSLFPYPFSL | 0.698 ± 0.022 | 0.764 ± 0.045 | 0.686 ± 0.02 | 0.765 ± 0.011 | 0.686 ± 0.01 | 0.672 ± 0.021 | 0.755 ± 0.018 | 0.755 ± 0.03
39 | FSSFLGFIRFFV | 0.661 ± 0.088 | 0.751 ± 0.0091 | 0.655 ± 0.022 | 0.751 ± 0.016 | 0.286 ± 0.018 | 0.315 ± 0.022 | 0.59 ± 0.04 | 0.426 ± 0.052
